For the series, the system named is Escherichia coli TOP10. The series can be described thus: shrunken log2 fold change of peptide-encoding DNA abundance (4.5 h post-induction vs induction); higher = less antimicrobial activity (less host growth inhibition). The following applies: time post-induction: 4.5 h; library: site-saturation at positions 5, 18, 19, 20.
Turning to RRIRCRPPRLPRPRPRPGRFPRP, the “shrunken log2 fold change” value stood at 0.0435.

With RRIRMRPPRLPRPRPRPCEMPRP, the “shrunken log2 fold change” value came out at 0.084.

Regarding RRIRIRPPRLPRPRPRPIGFPRP, the “shrunken log2 fold change” value stood at 0.0766.

As for RRIRNRPPRLPRPRPRPPKHPRP, the “shrunken log2 fold change” value worked out at 0.157.

RRIRQRPPRLPRPRPRPFEQPRP: the “shrunken log2 fold change” value was determined as 0.106.

On to RRIRFRPPRLPRPRPRPAFFPRP, for which the “shrunken log2 fold change” value is 0.0784.

As to RRIRRRPPRLPRPRPRPSDPPRP, the “shrunken log2 fold change” value was -0.00173.

For the sequence RRIRLRPPRLPRPRPRPDAWPRP, the “shrunken log2 fold change” value came out at 0.457.

On to RRIRGRPPRLPRPRPRPSTIPRP, for which the “shrunken log2 fold change” value turned out to be 0.235.

For RRIRMRPPRLPRPRPRPPCYPRP, the “shrunken log2 fold change” value was -0.0907.

As to RRIRPRPPRLPRPRPRPNRGPRP, the “shrunken log2 fold change” value was determined as 0.0424.

On to RRIRARPPRLPRPRPRPYDPPRP, for which the “shrunken log2 fold change” value was -0.406.

Take RRIRARPPRLPRPRPRPKQVPRP: the “shrunken log2 fold change” value turned out to be 0.0289.

As to RRIRTRPPRLPRPRPRPHEPPRP, the “shrunken log2 fold change” value is -0.197.

In the case of RRIRLRPPRLPRPRPRPSRAPRP, the “shrunken log2 fold change” value was determined as 0.0241.

For the sequence RRIRPRPPRLPRPRPRPVHPPRP, the “shrunken log2 fold change” value is 0.127.

In the case of RRIRNRPPRLPRPRPRPCDSPRP, the “shrunken log2 fold change” value was determined as 0.11.

For the sequence RRIRTRPPRLPRPRPRPEQQPRP, the “shrunken log2 fold change” value was 0.436.

With RRIRSRPPRLPRPRPRPNEQPRP, the “shrunken log2 fold change” value is 0.0903.

RRIRKRPPRLPRPRPRPGSKPRP: the “shrunken log2 fold change” value was -0.0334.

Regarding RRIRKRPPRLPRPRPRPIAMPRP, the “shrunken log2 fold change” value came out at 0.147.

With RRIRHRPPRLPRPRPRPSIAPRP, the “shrunken log2 fold change” value was -0.0614.

As for RRIRQRPPRLPRPRPRPQNLPRP, the “shrunken log2 fold change” value was -0.0271.

For RRIRTRPPRLPRPRPRPFYLPRP, the “shrunken log2 fold change” value is -0.522.

Consider RRIRRRPPRLPRPRPRPWCDPRP, for which the “shrunken log2 fold change” value stood at 0.0743.

For the sequence RRIRKRPPRLPRPRPRPMMCPRP, the “shrunken log2 fold change” value stood at 0.0781.

Regarding RRIRHRPPRLPRPRPRPQYCPRP, the “shrunken log2 fold change” value was -0.00186.

As to RRIRHRPPRLPRPRPRPYLDPRP, the “shrunken log2 fold change” value turned out to be 0.00552.

Regarding RRIRERPPRLPRPRPRPIHWPRP, the “shrunken log2 fold change” value was -0.0429.

For the sequence RRIRERPPRLPRPRPRPWFHPRP, the “shrunken log2 fold change” value is -0.421.

In the case of RRIRWRPPRLPRPRPRPPDSPRP, the “shrunken log2 fold change” value is 0.0564.

As for RRIRNRPPRLPRPRPRPSWKPRP, the “shrunken log2 fold change” value is 0.0635.

Turning to RRIRSRPPRLPRPRPRPLNAPRP, the “shrunken log2 fold change” value was found to be 0.213.

Turning to RRIRERPPRLPRPRPRPQNVPRP, the “shrunken log2 fold change” value was found to be 0.16.

As to RRIRLRPPRLPRPRPRPNTWPRP, the “shrunken log2 fold change” value is -0.245.

In the case of RRIRARPPRLPRPRPRPDDHPRP, the “shrunken log2 fold change” value came out at 0.432.

As for RRIRWRPPRLPRPRPRPNKPPRP, the “shrunken log2 fold change” value was -0.0749.

As for RRIRYRPPRLPRPRPRPAWGPRP, the “shrunken log2 fold change” value is 0.0852.

RRIRFRPPRLPRPRPRPRYFPRP: the “shrunken log2 fold change” value was found to be 0.0373.

Regarding RRIRNRPPRLPRPRPRPFKIPRP, the “shrunken log2 fold change” value was -0.0688.

Take RRIRLRPPRLPRPRPRPTPMPRP: the “shrunken log2 fold change” value is 0.143.

Take RRIRCRPPRLPRPRPRPMSWPRP: the “shrunken log2 fold change” value was -0.159.

Consider RRIRTRPPRLPRPRPRPAWFPRP, for which the “shrunken log2 fold change” value worked out at 0.131.

RRIRDRPPRLPRPRPRPPCCPRP: the “shrunken log2 fold change” value was -0.124.

With RRIRARPPRLPRPRPRPLSRPRP, the “shrunken log2 fold change” value was determined as 0.203.

Turning to RRIRQRPPRLPRPRPRPYTPPRP, the “shrunken log2 fold change” value was -0.856.

For RRIRPRPPRLPRPRPRPWLLPRP, the “shrunken log2 fold change” value is -0.111.

In the case of RRIRGRPPRLPRPRPRPGHLPRP, the “shrunken log2 fold change” value is 0.0503.

Turning to RRIRDRPPRLPRPRPRPKYHPRP, the “shrunken log2 fold change” value is -0.412.

For RRIRQRPPRLPRPRPRPFEHPRP, the “shrunken log2 fold change” value is -0.00133.

RRIRTRPPRLPRPRPRPCYRPRP: the “shrunken log2 fold change” value is -0.0575.

Regarding RRIRQRPPRLPRPRPRPLPGPRP, the “shrunken log2 fold change” value came out at 0.0661.

For the sequence RRIRLRPPRLPRPRPRPMTQPRP, the “shrunken log2 fold change” value amounted to 0.162.

Turning to RRIRKRPPRLPRPRPRPGWRPRP, the “shrunken log2 fold change” value turned out to be 0.348.

As to RRIRLRPPRLPRPRPRPLPDPRP, the “shrunken log2 fold change” value came to 0.327.

As for RRIRHRPPRLPRPRPRPLSVPRP, the “shrunken log2 fold change” value was -0.136.

As to RRIRMRPPRLPRPRPRPRNMPRP, the “shrunken log2 fold change” value amounted to 0.281.

On to RRIRERPPRLPRPRPRPLRNPRP, for which the “shrunken log2 fold change” value worked out at 0.308.

For RRIRRRPPRLPRPRPRPEVGPRP, the “shrunken log2 fold change” value is 0.946.

Turning to RRIRWRPPRLPRPRPRPCDIPRP, the “shrunken log2 fold change” value is -0.143.

Consider RRIRHRPPRLPRPRPRPPHVPRP, for which the “shrunken log2 fold change” value amounted to 0.16.

For RRIRCRPPRLPRPRPRPWIMPRP, the “shrunken log2 fold change” value was -0.275.

With RRIRGRPPRLPRPRPRPWVSPRP, the “shrunken log2 fold change” value is -0.0322.

As for RRIRHRPPRLPRPRPRPALMPRP, the “shrunken log2 fold change” value was -0.0655.

As for RRIRNRPPRLPRPRPRPFMYPRP, the “shrunken log2 fold change” value is -0.247.

Turning to RRIRYRPPRLPRPRPRPSAAPRP, the “shrunken log2 fold change” value is -0.222.

As to RRIRRRPPRLPRPRPRPINRPRP, the “shrunken log2 fold change” value was determined as 0.0995.

On to RRIRCRPPRLPRPRPRPQKIPRP, for which the “shrunken log2 fold change” value is -0.252.

Regarding RRIRCRPPRLPRPRPRPISKPRP, the “shrunken log2 fold change” value was -0.37.

As for RRIRSRPPRLPRPRPRPHQMPRP, the “shrunken log2 fold change” value was -0.207.

Take RRIRGRPPRLPRPRPRPITYPRP: the “shrunken log2 fold change” value came out at 0.265.

In the case of RRIRERPPRLPRPRPRPGHTPRP, the “shrunken log2 fold change” value is -0.0164.

For the sequence RRIRLRPPRLPRPRPRPPTWPRP, the “shrunken log2 fold change” value turned out to be 0.169.

RRIRHRPPRLPRPRPRPSNKPRP: the “shrunken log2 fold change” value was -0.802.

In the case of RRIRPRPPRLPRPRPRPEGYPRP, the “shrunken log2 fold change” value worked out at 0.128.

Consider RRIRERPPRLPRPRPRPWQHPRP, for which the “shrunken log2 fold change” value is -0.00568.

As to RRIRERPPRLPRPRPRPTTSPRP, the “shrunken log2 fold change” value was -0.147.

As for RRIRYRPPRLPRPRPRPEQLPRP, the “shrunken log2 fold change” value was -0.0122.

Turning to RRIRTRPPRLPRPRPRPYHVPRP, the “shrunken log2 fold change” value is -0.0196.

In the case of RRIRQRPPRLPRPRPRPACQPRP, the “shrunken log2 fold change” value was 0.15.

For RRIRVRPPRLPRPRPRPNKCPRP, the “shrunken log2 fold change” value is -0.616.

RRIRVRPPRLPRPRPRPYPFPRP: the “shrunken log2 fold change” value was -0.863.

Turning to RRIRDRPPRLPRPRPRPVLWPRP, the “shrunken log2 fold change” value is 0.37.

Consider RRIRKRPPRLPRPRPRPTRAPRP, for which the “shrunken log2 fold change” value stood at 1.2.

Turning to RRIRTRPPRLPRPRPRPSALPRP, the “shrunken log2 fold change” value is -0.178.

On to RRIRVRPPRLPRPRPRPPYNPRP, for which the “shrunken log2 fold change” value is -0.1.

For the sequence RRIRWRPPRLPRPRPRPFHQPRP, the “shrunken log2 fold change” value is -0.259.

As for RRIRCRPPRLPRPRPRPSWFPRP, the “shrunken log2 fold change” value is -0.147.

Regarding RRIRMRPPRLPRPRPRPDAAPRP, the “shrunken log2 fold change” value is 3.98.

With RRIRDRPPRLPRPRPRPRDRPRP, the “shrunken log2 fold change” value turned out to be 0.13.

With RRIRNRPPRLPRPRPRPKTQPRP, the “shrunken log2 fold change” value was -0.0734.

For the sequence RRIRDRPPRLPRPRPRPDWEPRP, the “shrunken log2 fold change” value turned out to be 0.0165.

With RRIRHRPPRLPRPRPRPMGNPRP, the “shrunken log2 fold change” value is -0.0499.

On to RRIRHRPPRLPRPRPRPWVAPRP, for which the “shrunken log2 fold change” value was -0.0296.

Take RRIRTRPPRLPRPRPRPKNYPRP: the “shrunken log2 fold change” value was -0.346.

For RRIRFRPPRLPRPRPRPRSDPRP, the “shrunken log2 fold change” value amounted to 0.193.

As to RRIRTRPPRLPRPRPRPETVPRP, the “shrunken log2 fold change” value worked out at 0.0349.

As for RRIRQRPPRLPRPRPRPDSGPRP, the “shrunken log2 fold change” value is -0.0171.

Take RRIRQRPPRLPRPRPRPICAPRP: the “shrunken log2 fold change” value stood at 0.36.

On to RRIRTRPPRLPRPRPRPHTRPRP, for which the “shrunken log2 fold change” value was determined as 0.0252.

With RRIRTRPPRLPRPRPRPNHKPRP, the “shrunken log2 fold change” value is -0.443.

Take RRIRNRPPRLPRPRPRPEARPRP: the “shrunken log2 fold change” value was -0.0678.

In the case of RRIRVRPPRLPRPRPRPVYIPRP, the “shrunken log2 fold change” value is -0.363.

Turning to RRIRDRPPRLPRPRPRPYKSPRP, the “shrunken log2 fold change” value was -0.106.

As to RRIRPRPPRLPRPRPRPMGCPRP, the “shrunken log2 fold change” value is -0.0927.

On to RRIRRRPPRLPRPRPRPTSGPRP, for which the “shrunken log2 fold change” value was 0.252.

Consider RRIRIRPPRLPRPRPRPGLWPRP, for which the “shrunken log2 fold change” value came to 0.0804.

In the case of RRIRGRPPRLPRPRPRPQVLPRP, the “shrunken log2 fold change” value was 0.0422.

RRIRPRPPRLPRPRPRPEGSPRP: the “shrunken log2 fold change” value worked out at 0.0654.

Take RRIRKRPPRLPRPRPRPNQDPRP: the “shrunken log2 fold change” value was -0.184.

As for RRIRFRPPRLPRPRPRPEWYPRP, the “shrunken log2 fold change” value was -0.361.

In the case of RRIRDRPPRLPRPRPRPVRTPRP, the “shrunken log2 fold change” value was -0.176.

Consider RRIRRRPPRLPRPRPRPVAHPRP, for which the “shrunken log2 fold change” value turned out to be 0.605.

On to RRIRTRPPRLPRPRPRPRGMPRP, for which the “shrunken log2 fold change” value is 0.24.

For the sequence RRIRMRPPRLPRPRPRPKKEPRP, the “shrunken log2 fold change” value was -0.0374.

Take RRIRIRPPRLPRPRPRPWVMPRP: the “shrunken log2 fold change” value is -0.152.

With RRIRQRPPRLPRPRPRPKNGPRP, the “shrunken log2 fold change” value is -0.159.

For the sequence RRIRFRPPRLPRPRPRPIRDPRP, the “shrunken log2 fold change” value is 0.0144.

For the sequence RRIRGRPPRLPRPRPRPWHLPRP, the “shrunken log2 fold change” value is -0.188.

Consider RRIRKRPPRLPRPRPRPVDHPRP, for which the “shrunken log2 fold change” value came to 0.147.

For the sequence RRIRYRPPRLPRPRPRPKYEPRP, the “shrunken log2 fold change” value is -0.177.

On to RRIRWRPPRLPRPRPRPVTWPRP, for which the “shrunken log2 fold change” value is -0.017.

On to RRIRLRPPRLPRPRPRPLPNPRP, for which the “shrunken log2 fold change” value was found to be 0.11.

On to RRIRKRPPRLPRPRPRPWCRPRP, for which the “shrunken log2 fold change” value was -0.189.

Take RRIRARPPRLPRPRPRPHSRPRP: the “shrunken log2 fold change” value is -0.0946.

These data come from the supplement of paper PMC9112550, “Optimization of the antimicrobial peptide Bac7 by deep mutational scanning” (BMC Biology, 2022).
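Further: peptides expressed intracellularly from a pBAD plasmid library in pooled LB shake-flask culture, induced with 0.3% L-arabinose, DNA abundance read by NGS, three biological replicates, DESeq2 with apeglm shrinkage.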
